For one test, the target named is T1, JCV VLPs (JC virus (JCV), UniProt P03089 1-354).
T1 construct: also called JC virus VLPs; JCV consensus
Kind of test: ELISA on plate-coated JCV VLPs (OD 450 nm). Background: In an ELISA, binding on a coated surface is turned into a signal by an enzyme label.

Test [1] deals with VP1 of the pooled BKV serotype I resistance-associated variant (RAV) virus with 20 amino acid changes (BK virus (BKV) serotype I). Kind of test: cell-based or functional assay.
Test [2] deals with VP1 on chimeric infectious BKV serotype II (BK virus (BKV) serotype II, UniProt P14996 1-362). Kind of test: cell-based or functional assay.

Where a chain is given by its changes, count along the chain named.

B1: 2077-26-1 (antibody, V domains shown)
VH: EVQLQQSGPDLVKPGASMKLSCKASGYSFTGYTMNWVKQSHGKNLEWIGLFNPYNGGPSYNQKFKGKATLTVDKSSSTAYMELLSLTPEDSAVYYCARLRYYGIGDDFFDYWGQGTTLTVSS
VL: DIVMTQSHKFMSTSVGDRVSITCKASQDVGTAVAWYQEKPGQSPKLLIYWASTRHTGVPDRFTGSGSGTDFTLTISNVQSEDLAYYFCQQYSNYPYTFGGGTKLEIK
In the case of B1, the EC50 (read off the curve) (usually the concentration giving half of the maximal effect) with JCV VLPs was approximately 0.07 nM.

B2: 2077-28-2 (antibody, V domains shown)
VH: B1 VH with D10E, L20I, P58A, S59T, K63R, E82D, P88S, A97T, Y101K
VL: B1 VL with E38Q, Y85D, N93T, P95T
For B2, the concentration giving a half-maximal response (EC50 (read off the curve)) with JCV VLPs is approximately 0.08 nM.

B3: P8D11 (antibody, human IgG1, lambda)
heavy: not shown
light: QSVLTQPPSVSVAPGKTARITCGGDNIGSRPVHWYQQKPGQAPILVVYDDSNRPSGIPERFSGSNSGNTATLTISRVEAGDEADYYCQVWSSSTDHPFGGGTKVTVLGQPKAAPSVTLFPPSSEELQANKATLVCLISDFYPGAVTVAWKADSSPVKAGVETTTPSKQSNNKYAASSYLSLTPEQWKSHRSYSCQVTHEGSTVEKTVAPTECS
Consider B3, for which, in test [1], the “shift in EC50 of neutralisation against wild-type virus” value is 3.9 fold.

B4: NEG447A (antibody, human IgG1, lambda, V domains shown)
VH: QVQLQESGPGLVKPSETLSLTCTVSGGSISRDYWSWVRQPPGAGLEWIGNIYYSGSTNYNPSLKSRVTISVATNKKQFSLKLTSVTAADTAVYYCARVPGCSSTSCIDGWFDPWGQGILVTVSS
VL: QSVLTQPPSVSAAPGQKVTISCSGSSSNIGNTYVSWYQQLPGTAPKLLIYDNNKRPSGIPDRFSGSKSGTSATLGITGLQTGDEADYYCGTWDSSLSAWVFGGGTRLTVLG
Regarding B4, the “EC90 of neutralisation, fold change” value in test [2] is approximately 8 fold.

Values taken from US20190002533A1 (Novartis, published 2019).
